We go through two proteins from paper PMC5094862 (Journal of the American Chemical Society, 2016).

This data set deals with the molecule itself. Description: SEC.

B1: synthetic L-GroES (natural protein, E. coli, UniProt P0A6F9 1-97, looked up)
chain: MNIRPLHDRVIVKRKEVETKSAGGIVLTGSAAAKSTRGEVLAVGNGRILENGEVKPLDVKVGDIVIFNDGYGVKSEKIDNEEVLIMSESDILAIVEA
For the protein B1, the binding result is reported as “binds”.

B2: recombinant GroES (natural protein, E. coli, UniProt P0A6F9 1-97, looked up)
chain: B1 chain
For the protein B2, the binding result is recorded as “binds”.
